Molecular target: T1, biotinylated CD47 (UniProt Q08722 19-141, biotin (by BirA ligase, on the Avi tag))
T1 construct: CD47, IgSF domain; the SPR methods say only 'biotinylated CD47'. 'Purified as described above' would imply a His tag and a cleaved GST; also called CD47 IgSF domain
Experiment: SPR; biotinylated CD47 (Rmax ~150 RU) captured on Biacore SA sensor chip at 25 °C; serial dilutions of SIRPα in HBS-P buffer; regeneration with 2 mol/L MgCl2; Langmuir binding model, Biacore T200
Details: both partners purified

T1 sequence (Q08722 19-141): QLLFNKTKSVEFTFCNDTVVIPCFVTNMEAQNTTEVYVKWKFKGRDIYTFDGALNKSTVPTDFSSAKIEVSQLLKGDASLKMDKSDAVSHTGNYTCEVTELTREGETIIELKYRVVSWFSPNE

Kd: 365 nM
dissociation half-life (t1/2): 2.4 s
B1: wild-type SIRPα (SIRPα WT), soluble monomer (domain or fragment, human, UniProt P78324 31-148, looked up)
chain: EEELQVIQPDKSVLVAAGETATLRCTATSLIPVGPIQWFRGAGPGRELIYNQKEGHFPRVTTVSDLTKRNNMDFSIRIGNITPADAGTYYCVKFRKGSPDDVEFKSGAGTELSVRAKP
notes: signal regulatory protein α (SIRPα), human, N-terminal V-set Ig domain; also called wild-type human SIRPα; SIRPα WT monomer; source: E. coli BL-21(DE3), purified (Ni-NTA; GST removed with HRV 3C protease); not shown: GST, N-terminal, cleaved

From PMC9701394, “Modified exosomal SIRPα variants alleviate white matter injury after intracerebral hemorrhage via microglia/macrophages” (Biomaterials Research, 2022)
